Consider one molecule from paper PMC4963854 (2016).

For one test, the target named is Fluo-IIa (Streptococcus pyogenes). The test is described as follows: fluorescence polarization. In general terms: In fluorescence polarisation assays a small probe gives low polarisation when free and higher when bound to something large.
The target of a further test is Fluo-Ia (Streptococcus pyogenes). The test is described as follows: fluorescence polarization.

B1: Epsilon antitoxin (protein)
chain: AVTYEKTFEIEIINELSASVYNRVLNYVLNHELNKNDSQLLEVNLLNQLKLAKRVNLFDYSLEELQAVHEYWRSMNRYSKQVLNKEKVA
Take B1: the Kd in the test with Fluo-IIa worked out at 170 nM; with Fluo-Ia, 74.5 nM.

Usually Kd stands for the concentration at which binding is half-saturated. Low readings indicate higher affinity, high ones lower affinity.
